Experimental data reported in article PMC11039998 (Nucleic Acids Research, 2024).
Where no end group is shown, it is not given here.

Biological target: Methyl binding domain (MBD) of MeCP2, wild-type (UniProt P51608 90-162)
Assay: ITC

Chain of Methyl binding domain (MBD) of MeCP2, wild-type (P51608 90-162): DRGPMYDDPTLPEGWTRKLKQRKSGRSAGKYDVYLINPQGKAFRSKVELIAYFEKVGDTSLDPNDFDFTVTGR

Binder	Kd
Ac-TKAARKSAPAT-NH2 [H3-derived peptide of the K27 region, wild-type]	3.4 µM
TKAARK(Me3)SAPAT [H3-derived peptide of the K27 region, trimethylated at K27]	12 µM
